The source of these data is patent publication EP4682162A1 (Neowise Biotechnology Co., Ltd., dated 2026).

The target in experiment [1] is T1, labeled peptide-MHC (HLA-A*02:01) tetramer (…-HLA-A*02:01 tetramer) (human).
T1 construct: Labeled tetramer used for flow cytometry staining; also called pMHC; pMHC tetramer
Description: pMHC tetramer staining of edited CD8+ T cells, flow cytometry. In general terms: In flow cytometry, cells or beads pass a laser one at a time.

Experiment [2] concerns the target T1, labeled peptide-MHC (HLA-A*02:01) …. Description: tetramer staining of sorted T cell clones, flow cytometry.

B1: nwTCR-2157 (TCR, V domains shown)
V domain 1: QKEVEQNSGPLSVPEGAIASLNCTYSDRGSQSFFWYRQYSGKSPELIMFIYSNGDKEDGRFTAQLNKASQYVSLLIRDSQPSDSATYLCAVPGGTSYGKLTFGQGTILTVHP
V domain 2: DTAVSQTPKYLVTQMGNDKSIKCEQNLGHDTMYWYKQDSKKFLKIMFSYNNKELIINETVPNRFSPKSPDKAHLNLHINSLELGDSAVYFCASSQGISGNTIYFGEGSWLTVVE
notes: TCR on T cells
On to B1, for which the binding result in experiment [1] was “binds”.

B2: nwTCR-3271 (TCR, V domains shown)
V domain 1: DQQVKQNSPSLSVQEGRISILNCDYTNSMFDYFLWYKKYPAEGPTFLISISSIKDKNEDGRFTVFLNKSAKHLSLHIVPSQPGDSAVYFCAAKPDKLIFGTGTRLQVFP
V domain 2: SAVISQKPSRDICQRGTSLTIQCQVDSQVTMMFWYRQQPGQSLTLIATANQGSEATYESGFVIDKFPISRPNLTFSTLTVSNMSPEDSSIYLCSVWGAGLAIYNEQFFGPGTRLTVLE
notes: TCR on T cells
Consider B2, for which the binding result in experiment [2] was “binds”.

B3: nwTCR-2159 (TCR, V domains shown)
V domain 1: QQPVQSPQAVILREGEDAVINCSSSKALYSVHWYRQKHGEAPVFLMILLKGGEQKGHDKISASFNEKKQQSSLYLTASQLSYSGTYFCGTESGRGSTLGRLYFGRGTQLTVWP
V domain 2: DSGVTQTPKHLITATGQRVTLRCSPRSGDLSVYWYQQSLDQGLQFLIQYYNGEERAKGNILERFSAQQFPDLHSELNLSSLELGDSALYFCASSPWTSGSYEQYFGPGTRLTVTE
notes: TCR on T cells
With B3, in experiment [1], the binding result is “binds”.

B4: nwTCR-3273 (TCR, V domains shown)
V domain 1: SQELEQSPQSLIVQEGKNLTINCTSSKTLYGLYWYKQKYGEGLIFLMMLQKGGEEKSHEKITAKLDEKKQQSSLHITASQPSHAGIYLCGAVPINDYKLSFGAGTTVTVRA
V domain 2: EAQVTQNPRYLITVTGKKLTVTCSQNMNHEYMSWYRQDPGLGLRQIYYSMNVEVTDKGDVPEGYKVSRKEKRNFPLILESPSPNQTSLYFCASSIDSGSSYNEQFFGPGTRLTVLE
notes: TCR on T cells
Take B4: the binding result in experiment [2] is “binds”.

B5: nwTCR-3272 (TCR, V domains shown)
V domain 1: QKEVEQNSGPLSVPEGAIASLNCTYSDRGSQSFFWYRQYSGKSPELIMSIYSNGDKEDGRFTAQLNKASQYVSLLIRDSQPSDSATYLCAVPSGNMLTFGGGTRLMVKP
V domain 2: DVKVTQSSRYLVKRTGEKVFLECVQDMDHENMFWYRQDPGLGLRLIYFSYDVKMKEKGDIPEGYSVSREKKERFSLILESASTNQTSMYLCASSSATSGSGEQYFGPGTRLTVTE
notes: TCR on T cells
As to B5, the binding result in experiment [2] was “binds”.

B6: nwTCR-2169 (TCR, V domains shown)
V domain 1: SQQGEEDPQALSIQEGENATMNCSYKTSINNLQWYRQNSGRGLVHLILIRSNEREKHSGRLRVTLDTSKKSSSLLITASRAADTASYFCATLTLNDYKLSFGAGTTVTVRA
V domain 2: EAQVTQNPRYLITVTGKKLTVTCSQNMNHEYMSWYRQDPGLGLRQIYYSMNVEVTDKGDVPEGYKVSRKEKRNFPLILESPSPNQTSLYFCATQWASGSTDTQYFGPGTRLTVLE
notes: TCR on T cells
With B6, the binding result in experiment [1] was “binds”.

B7: nwTCR-2006 (TCR, V domains shown)
V domain 1: AQSVTQLDSHVSVSEGTPVLLRCNYSSSYSPSLFWYVQHPNKGLQLLLKYTSAATLVKGINGFEAEFKKSETSFHLTKPSAHMSDAAEYFCVVSITGFQKLVFGTGTRLLVSP
V domain 2: GAVVSQHPSRVICKSGTSVKIECRSLDFQATTMFWYRQFPKQSLMLMATSNEGSKATYEQGVEKDKFLINHASLTLSTLTVTSAHPEDSSFYICSATEDNEKLFFGSGTQLSVLE
notes: TCR on T cells
With B7, the binding result in experiment [1] is listed as “binds”.

B8: nwTCR-3274 (TCR, V domains shown)
V domain 1: QKEVEQNSGPLSVPEGAIASLNCTYSDRGSQSFFWYRQYSGKSPELIMSIYSNGDKEDGRFTAQLNKASQYVSLLIRDSQPSDSATYLCAVVSGGYNKLIFGAGTRLAVHP
V domain 2: EPEVTQTPSHQVTQMGQEVILRCVPISNHLYFYWYRQILGQKVEFLVSFYNNEISEKSEIFDDQFSVERPDGSNFTLKIRSTKLEDSAMYFCASSEGWGGTEAFFGQGTRLTVVE
notes: TCR on T cells
As to B8, the binding result in experiment [2] is “binds”.

B9: nwTCR-3173 (TCR, V domains shown)
V domain 1: SQQGEEDPQALSIQEGENATMNCSYKTSINNLQWYRQNSGRGLVHLILIRSNEREKHSGRLRVTLDTSKKSSSLLITASRAADTASYFCATYANDYKLSFGAGTTVTVRA
V domain 2: EAQVTQNPRYLITVTGKKLTVTCSQNMNHEYMSWYRQDPGLGLRQIYYSMNVEVTDKGDVPEGYKVSRKEKRNFPLILESPSPNQTSLYFCASSAGTGGFVGYTFGSGTRLTVVE
notes: TCR on T cells
With B9, the binding result in experiment [2] is on record as “binds”.

B10: nwTCR-1954 (TCR, V domains shown)
V domain 1: QKEVEQNSGPLSVPEGAIASLNCTYSDRGSQSFFWYRQYSGKSPELIMSIYSNGDKEDGRFTAQLNKASQYVSLLIRDSQPSDSATYLCAVLRSNDYKLSFGAGTTVTVRA
V domain 2: EAQVTQNPRYLITVTGKKLTVTCSQNMNHEYMSWYRQDPGLGLRQIYYSMNVEVTDKGDVPEGYKVSRKEKRNFPLILESPSPNQTSLYFCASSPGTSGNEQFFGPGTRLTVLE
notes: TCR on T cells
For the molecule B10, the binding result in experiment [2] is on record as “binds”.
